Laboratory results: US20050272093A1 (ROCKEFELLER UNIVERSITY, published 2005)

Biological target: T1, radiolabeled agitoxin2 (D20C conjugated with tritiated N-ethylmaleimide) (Leiurus quinquestriatus hebraeus, UniProt P46111 1-38)
T1 construct: mature
Assay: filter binding assay with tritiated agitoxin2

B1: wild type kcsa K+ channel from Streptomyces lividans (other)
chain: MPPMLSGLLARLVKLLLGRHGSALHWRAAGAATVLLVIVLLAGSYLAVLAERGAPGAQLITYPRALWWSVETATTVGYGDLYPVTLWGRLVAVVVMVAGITSFGLVTAALATWFVGREQERRGHFVRHSEKAAEEAYTRTTRALHERFDRLERMLDDN
- binding result: no binding
